B3: Shewanella oneidensis MR-1 HipBso (SO0705) (natural protein, UniProt Q8EIX4 1-78, looked up)
chain: MASPLNQQSLGLLIKERRKSAALTQDVAAMLCGVTKKTLIRVEKGEDVYISTVFKILDGLGIDIVSAQTSDTETNGWY

Assays:
HipBso = target: T1, HipBso (Shewanella oneidensis MR-1, UniProt PDB:4PU3_2 1-118); experiment: ITC
T1 sequence: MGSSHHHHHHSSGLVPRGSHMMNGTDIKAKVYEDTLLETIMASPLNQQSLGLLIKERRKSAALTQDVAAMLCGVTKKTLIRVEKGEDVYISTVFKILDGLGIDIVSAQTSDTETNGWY

[1] = target: B3; experiment: ITC
SEC = target: the molecule itself; experiment: SEC
[2] = target: T2, HipAso D306Q active site mutant (non-phosphorylated) (Shewanella oneidensis MR-1, UniProt Q8EIX3 1-433, D306Q); experiment: ITC
T2 sequence: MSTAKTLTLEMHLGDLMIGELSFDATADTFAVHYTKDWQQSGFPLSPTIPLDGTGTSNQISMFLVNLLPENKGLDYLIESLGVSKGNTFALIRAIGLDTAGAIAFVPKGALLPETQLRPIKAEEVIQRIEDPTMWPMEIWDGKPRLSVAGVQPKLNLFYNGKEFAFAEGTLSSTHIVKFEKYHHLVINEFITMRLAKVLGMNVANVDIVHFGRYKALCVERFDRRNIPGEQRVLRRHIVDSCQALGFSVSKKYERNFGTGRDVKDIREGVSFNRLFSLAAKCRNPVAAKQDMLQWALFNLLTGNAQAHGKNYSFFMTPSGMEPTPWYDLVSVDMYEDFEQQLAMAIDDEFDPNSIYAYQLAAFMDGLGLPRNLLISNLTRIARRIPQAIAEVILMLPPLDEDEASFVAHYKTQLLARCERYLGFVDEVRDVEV

B1: hipBAso operator DNA (26 bp) (dsDNA)
DNA 1: ATTAGGTGTACTTATCTACACTTTTT
DNA 2: AAAAAGTGTAGATAAGTACACCTAAT
- Kd (HipBso): 290 nM

B2: Shewanella oneidensis MR-1 HipAso (SO0706), recombinant wild type (enzyme)
chain: MSTAKTLTLEMHLGDLMIGELSFDATADTFAVHYTKDWQQSGFPLSPTIPLDGTGTSNQISMFLVNLLPENKGLDYLIESLGVSKGNTFALIRAIGLDTAGAIAFVPKGALLPETQLRPIKAEEVIQRIEDPTMWPMEIWDGKPRLSVAGVQPKLNLFYNGKEFAFAEGTLSSTHIVKFEKYHHLVINEFITMRLAKVLGMNVANVDIVHFGRYKALCVERFDRRNIPGEQRVLRRHIVDSCQALGFSVSKKYERNFGTGRDVKDIREGVSFNRLFSLAAKCRNPVAAKQDMLQWALFNLLTGNADAHGKNYSFFMTPSGMEPTPWYDLVSVDMYEDFEQQLAMAIDDEFDPNSIYAYQLAAFMDGLGLPRNLLISNLTRIARRIPQAIAEVILMLPPLDEDEASFVAHYKTQLLARCERYLGFVDEVRDVEV
- stoichiometry N [1]: 2 HipAso per HipBso dimer

Binder: B3
- stoichiometry N (SEC): 2
- Kd [2]: 300 nM

Reference: PMC4150777 (Nucleic Acids Research, 2014)
